{"source": "patent US20210380703A1"}
{"biological_target": "human Fc (human)", "experiment": "ELISA, negative control", "units": {"optical density": "OD"}}
{"binder": "368_A06 (antibody, V domains shown) VH: EVQLLESGGGLVQPGGSLRLSCAASGFTFDSYSMHWVRQAPGKGLEWVAGINYNSGYKGYADSVKGRFTISRDNSKNTLYLQMNSLRAEDTAVYYCARAANWHDTHLDYWGQGTLVTVSS VL: DIQMTQSPSSLSASVGDRVTITCRASQSILSYVNWYQQKPGKAPKLLIYAATSRHSGVPSRFSGSGSGTDFTLTISSLQPEDFATYYCQQSYNSPLTFGGGTKVEIK", "optical density": 0.483}
{"binder": "374_E10 (antibody, V domains shown) VH: EVQLLESGGGLVQPGGSLRLSCAASGFTFSSYSMNWVRQAPGKGLEWVSGINYNGGYKSYADSVKGRFTISRDNSKNTLYLQMNSLRAEDTAVYYCARGANWHDTALDYWGQGTLVTVSS VL: DIQMTQSPSSLSASVGDRVTITCRASQSILSYLNWYQQKPGKAPKLLIYAATSRHSGVPSRFSGSGSGTDFTLTISSLQPEDFATYYCQQSYDSPLTFGGGTKVEIK", "optical density": 0.165}
{"binder": "374_G03 (antibody, V domains shown) VH: EVQLLESGGGLVQPGGSLRLSCAASGFTFSDYSMNWVRQAPGKGLEWVSGINYNGGYTSYADSVKGRFTISRDNSKNTLYLQMNSLRAEDTAVYYCARGANWHDTALDYWGQGTLVTVSS VL: DIQMTQSPSSLSASVGDRVTITCRASQSISSYLNWYQQKPGKAPKLVIYAATSRASGVPSRFSGSGSGTDFTLTISSLQPEDFATYYCQQSDDTPLTFGGGTKVEIK", "optical density": 0.193}
{"binder": "374_G08 (antibody, V domains shown) VH: EVQLLESGGGLVQPGGSLRLSCAASGFTFDSYSMNWVRQAPGKGLEWVSGINYNGGYTSYADSVKGRFTISRDNSKNTLYLQMNSLRAEDTAVYYCARGANWHDTALDYWGQGTLVTVSS VL: DIQMTQSPSSLSASVGDRVTITCRASQSILTYVNWYQQKPGKAPKLVIYAATSRASGVPSRFSGSGSGTDFTLTISSLQPEDFATYYCQQSYDSPLTFGGGTKVEIK", "optical density": 0.206}
{"binder": "368_B03 (antibody, V domains shown) VH: EVQLLESGGGLVQPGGSLRLSCAASGFTFDDYGMNWVRQAPGKGLEWVSGINYNGGYTSYADSVKGRFTISRDNSKNTLYLQMNSLRAEDTAVYYCARAANWHDTALDYWGQGTLVTVSS VL: DIQMTQSPSSLSASVGDRVTITCRASQSILTYLNWYQQKPGKAPKLVIYAATSLASGVPSRFSGSGSGTDFTLTISSLQPEDFATYYCQHSYENPLTFGGGTKVEIK", "optical density": 0.297}
{"binder": "374_E12 (antibody, V domains shown) VH: EVQLLESGGGLVQPGGSLRLSCAASGFTFSSYSMNWVRQAPGKGLEWVSGINYNGGYKSYADSVKGRFTISRDNSKNTLYLQMNSLRAEDTAVYYCARGANWHDTALDYWGQGTLVTVSS VL: DIQMTQSPSSLSASVGDRVTITCRASQSILSYLNWYQQKPGKAPKLVIYAATSRASGVPSRFSGSGSGTDFTLTISSLQPEDFATYYCQQSYDNPLTFGGGTKVEIK", "optical density": 0.177}
{"binder": "374_B08 (antibody, V domains shown) VH: EVQLLESGGGLVQPGGSLRLSCAASGFTFDSYSMNWVRQAPGKGLEWVAGINYNGGYTSYADSVKGRFTISRDNSKNTLYLQMNSLRAEDTAVYYCARGANWHDTALDYWGQGTLVTVSS VL: DIQMTQSPSSLSASVGDRVTITCRASQSIVSYVNWYQQKPGKAPKLLIYAATSRHSGVPSRFSGSGSGTDFTLTISSLQPEDFATYYCQQSYELPLTFGGGTKVEIK", "optical density": 0.188}
{"binder": "374_B10 (antibody, V domains shown) VH: EVQLLESGGGLVQPGGSLRLSCAASGFTFSSYSMNWVRQAPGKGLEWVSSINYNSGYTSYADSVKGRFTISRDNSKNTLYLQMNSLRAEDTAVYYCARGANWHDTHLDYWGQGTLVTVSS VL: DIQMTQSPSSLSASVGDRVTITCRASQSILTYVNWYQQKPGKAPKLVIYAATSLASGVPSRFSGSGSGTDFTLTISSLQPEDFATYYCQQSYDTPLTFGGGTKVEIK", "optical density": 0.17}
{"binder": "374_F07 (antibody, V domains shown) VH: EVQLLESGGGLVQPGGSLRLSCAASGFTFDSYSMNWVRQAPGKGLEWVASINYNGGYTGYADSVKGRFTISRDNSKNTLYLQMNSLRAEDTAVYYCARGANWHDTHLDYWGQGTLVTVSS VL: DIQMTQSPSSLSASVGDRVTITCRASQSILSYLNWYQQKPGKAPKLVIYAVTSLASGVPSRFSGSGSGTDFTLTISSLQPEDFATYYCQQSYESPLTFGGGTKVEIK", "optical density": 0.176}
{"binder": "374_B03 (antibody, V domains shown) VH: EVQLLESGGGLVQPGGSLRLSCAASGFTFDSYSMNWVRQAPGKGLEWVSGINYNGGYTSYADSVKGRFTISRDNSKNTLYLQMNSLRAEDTAVYYCARGANWHDTALDYWGQGTLVTVSS VL: DIQMTQSPSSLSASVGDRVTITCRASQSILTYLNWYQQKPGKAPKLVIYAATSRASGVPSRFSGSGSGTDFTLTISSLQPEDFATYYCQQSYDSPLTFGGGTKVEIK", "optical density": 0.166}
{"binder": "374_D07 (antibody, V domains shown) VH: EVQLLESGGGLVQPGGSLRLSCAASGFTFDSYSMNWVRQAPGKGLEWVSGINYNSGYKSYADSVKGRFTISRDNSKNTLYLQMNSLRAEDTAVYYCARGANWHDTALDYWGQGTLVTVSS VL: DIQMTQSPSSLSASVGDRVTITCRASQSIVSYLNWYQQKPGKAPKLVIYAATSLASGVPSRFSGSGSGTDFTLTISSLQPEDFATYYCQQSYNSPLTFGGGTKVEIK", "optical density": 0.176}
{"binder": "374_C01 (antibody, V domains shown) VH: EVQLLESGGGLVQPGGSLRLSCAASGFTFDSYGMNWVRQAPGKGLEWVSGINYNSGYKSYADSVKGRFTISRDNSKNTLYLQMNSLRAEDTAVYYCARGANWHDTALDYWGQGTLVTVSS VL: DIQMTQSPSSLSASVGDRVTITCRASQSILTYLNWYQQKPGKAPKLLIYAATSRASGVPSRFSGSGSGTDFTLTISSLQPEDFATYYCQQSYETPLTFGGGTKVEIK", "optical density": 0.167}
{"binder": "374_D10 (antibody, V domains shown) VH: EVQLLESGGGLVQPGGSLRLSCAASGFTFSSYGMHWVRQAPGKGLEWVASINYNGGYTSYADSVKGRFTISRDNSKNTLYLQMNSLRAEDTAVYYCARGANWHDTHLDYWGQGTLVTVSS VL: DIQMTQSPSSLSASVGDRVTITCRASQSILTYVNWYQQKPGKAPKLLIYAATSRASGVPSRFSGSGSGTDFTLTISSLQPEDFATYYCQQSYDNPLTFGGGTKVEIK", "optical density": 0.329}
{"binder": "368_A12 (antibody, V domains shown) VH: EVQLLESGGGLVQPGGSLRLSCAASGFTFDSYSMHWVRQAPGKGLEWVSSINYNSGYKGYADSVKGRFTISRDNSKNTLYLQMNSLRAEDTAVYYCARAANWHDTALDYWGQGTLVTVSS VL: DIQMTQSPSSLSASVGDRVTITCRASQSILTYLNWYQQKPGKAPKLVIYAATSRASGVPSRFSGSGSGTDFTLTISSLQPEDFATYYCQQSYDSPLTFGGGTKVEIK", "optical density": 0.425}
{"binder": "374_G09 (antibody, V domains shown) VH: EVQLLESGGGLVQPGGSLRLSCAASGFTFSSYSMNWVRQAPGKGLEWVAGINYNGGYKGYADSVKGRFTISRDNSKNTLYLQMNSLRAEDTAVYYCARGANWHDTHLDYWGQGTLVTVSS VL: DIQMTQSPSSLSASVGDRVTITCRASQSIVRYLNWYQQKPGKAPKLVIYAATSLASGVPSRFSGSGSGTDFTLTISSLQPEDFATYYCQQSYELPLTFGGGTKVEIK", "optical density": 0.223}
{"binder": "374_F08 (antibody, V domains shown) VH: EVQLLESGGGLVQPGGSLRLSCAASGFTFDSYSMNWVRQAPGKGLEWVSGINYNGGYKSYADSVKGRFTISRDNSKNTLYLQMNSLRAEDTAVYYCARGANWHDTALDYWGQGTLVTVSS VL: DIQMTQSPSSLSASVGDRVTITCRASQSILTYVNWYQQKPGKAPKLVIYAVTSRASGVPSRFSGSGSGTDFTLTISSLQPEDFATYYCQQSYDTPLTFGGGTKVEIK", "optical density": 0.211}
{"binder": "374_D03 (antibody, V domains shown) VH: EVQLLESGGGLVQPGGSLRLSCAASGFTFDSYSMNWVRQAPGKGLEWVAGINYNGGYKSYADSVKGRFTISRDNSKNTLYLQMNSLRAEDTAVYYCARGANWHDTHLDYWGQGTLVTVSS VL: DIQMTQSPSSLSASVGDRVTITCRASQSIVTYLNWYQQKPGKAPKLLIYAATSRASGVPSRFSGSGSGTDFTLTISSLQPEDFATYYCQQSYDTPLTFGGGTKVEIK", "optical density": 0.216}
{"binder": "374_D05 (antibody, V domains shown) VH: EVQLLESGGGLVQPGGSLRLSCAASGFTFDSYSMNWVRQAPGKGLEWVSGINYNSGYTGYADSVKGRFTISRDNSKNTLYLQMNSLRAEDTAVYYCARGANWHDTHLDYWGQGTLVTVSS VL: DIQMTQSPSSLSASVGDRVTITCRASQSILTYLNWYQQKPGKAPKLLIYAATSRASGVPSRFSGSGSGTDFTLTISSLQPEDFATYYCQQSYDTPLTFGGGTKVEIK", "optical density": 0.171}
{"binder": "374_C09 (antibody, V domains shown) VH: EVQLLESGGGLVQPGGSLRLSCAASGFTFDSYGMNWVRQAPGKGLEWVSSINYNGGYKGYADSVKGRFTISRDNSKNTLYLQMNSLRAEDTAVYYCARGANWHDTHLDYWGQGTLVTVSS VL: DIQMTQSPSSLSASVGDRVTITCRASQSIVSYLNWYQQKPGKAPKLVIYAATSRASGVPSRFSGSGSGTDFTLTISSLQPEDFATYYCQQSYELPLTFGGGTKVEIK", "optical density": 0.154}
{"binder": "374_D06 (antibody, V domains shown) VH: EVQLLESGGGLVQPGGSLRLSCAASGFTFSSYSMNWVRQAPGKGLEWVSGINYNGGYTSYADSVKGRFTISRDNSKNTLYLQMNSLRAEDTAVYYCARGANWHDTALDYWGQGTLVTVSS VL: DIQMTQSPSSLSASVGDRVTITCRASQSILSYVNWYQQKPGKAPKLVIYAATSRASGVPSRFSGSGSGTDFTLTISSLQPEDFATYYCQQSYDSPLTFGGGTKVEIK", "optical density": 0.172}
{"binder": "374_C12 (antibody, V domains shown) VH: EVQLLESGGGLVQPGGSLRLSCAASGFTFSSYSMNWVRQAPGKGLEWVAGINYNGGYKSYADSVKGRFTISRDNSKNTLYLQMNSLRAEDTAVYYCARGANWHDTALDYWGQGTLVTVSS VL: DIQMTQSPSSLSASVGDRVTITCRASQSILTYLNWYQQKPGKAPKLVIYAATSRASGVPSRFSGSGSGTDFTLTISSLQPEDFATYYCQQSDNSPLTFGGGTKVEIK", "optical density": 0.308}
{"binder": "374_B05 (antibody, V domains shown) VH: EVQLLESGGGLVQPGGSLRLSCAASGFTFDSYSMNWVRQAPGKGLEWVSGINYNSGYTSYADSVKGRFTISRDNSKNTLYLQMNSLRAEDTAVYYCARGANWHDTALDYWGQGTLVTVSS VL: DIQMTQSPSSLSASVGDRVTITCRASQSIVSYLNWYQQKPGKAPKLLIYAATSRHSGVPSRFSGSGSGTDFTLTISSLQPEDFATYYCQQSYESPLTFGGGTKVEIK", "optical density": 0.168}
